Results taken from patent US20220073599A1 (Hoffmann-La Roche, published 2022).
Where a chain is given by its changes, count along the chain named.

T1: human VEGFA-121-His (human, UniProt P15692 181-395)
T1 construct: Prepared in-house; not shown: His tag
T1 sequence: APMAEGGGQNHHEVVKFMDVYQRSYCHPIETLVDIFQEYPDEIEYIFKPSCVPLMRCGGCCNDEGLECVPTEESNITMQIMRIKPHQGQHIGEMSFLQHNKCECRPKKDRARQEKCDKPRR

T2: human Ang2-RBD-muFc (human, UniProt O15123 275-496, limits assumed)
T2 construct: also called Human ANG2 (KinExA); not shown: murine Fc (muFc)
T2 sequence: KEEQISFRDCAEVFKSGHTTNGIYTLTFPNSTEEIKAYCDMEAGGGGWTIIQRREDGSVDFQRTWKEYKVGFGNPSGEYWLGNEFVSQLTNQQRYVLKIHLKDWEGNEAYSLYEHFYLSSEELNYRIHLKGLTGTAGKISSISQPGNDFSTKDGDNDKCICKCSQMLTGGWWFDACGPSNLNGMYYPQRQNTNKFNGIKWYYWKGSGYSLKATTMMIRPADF

T3: Mouse VEGF-A-121 (mouse, UniProt Q00731-3 27-146)
T3 construct: also called mouse VEGF-A121-His; not shown: His tag
T3 sequence (looked up): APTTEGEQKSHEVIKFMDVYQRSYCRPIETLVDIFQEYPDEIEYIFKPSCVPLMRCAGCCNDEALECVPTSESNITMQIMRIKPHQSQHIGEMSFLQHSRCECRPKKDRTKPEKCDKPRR

T4: human Ang2-RBD (human, UniProt O15123 275-496, limits assumed)
T4 construct: also called Human ANG2 (SPR); Angiopoietin 2-RBD
T4 sequence: T2 sequence

B1: bispecific anti-VEGF-A/anti-ANG2 Fab fragment P1AD9820 (Fab, V domains shown)
VH: SEHLVESGGGLVKPGGSLRLSCATADFFEYDDMSWVRQAPGKGLEWVGSISPKGDHKYLNTKFIGRFTISRDDSKNTLYLQMNSLRAEDTAVYYCARDVGFFDWWGQGTLVTVSS
VL: AIYMHQEPSSLSASVGDRVTITCHGSYWLNSEVAWYQQKPGKAPKLLIFDGDFKVYEVPSRFSGSGSHEDYTLTISSLQPEDFATYYCQQYRYHPYTFGHGTKVEIKR
notes: Bispecific Fab with two paratopes in one VH/VL pair; also called P1AD9820 Fab
B2: bispecific anti-VEGF-A/anti-ANG2 Fab fragment P1AA8906 (Fab, V domains shown)
VH: DFQLVESGGGLVKPGGSLRLSCAASYEFEYDDMSWVRQAPGKGLEWVGSISPKGGSTYYNTKFIGRFTISRDNSKNTLYLQMNSLRAEDTAVYYCARDVGFFDMWGQGTLVTVSS
VL: B1 VL with N30S, S31N, E32Y, V33L, G51A, D52R, F53W, K54L, Y56H, E57G
notes: Bispecific Fab with two paratopes in one VH/VL pair (DutaFab); CH1 and Ckappa

Tests used:
human VEGFA-121-His [1] = molecular target: T1, human VEGFA-121-His; assay: KinExA equilibrium titration in solution, VEGFA-121
human VEGFA-165 = molecular target: T5, human VEGFA-165 (human, UniProt P15692-4 27-191); assay: KinExA, VEGFA-165; set-up for VEGFA-165 not described
T5 construct: also called hVEGF-A165

human Ang2-RBD-muFc [2] = molecular target: T2, human Ang2-RBD-muFc; assay: KinExA, human ANG2 (Ang2-RBD-muFc) by the table's title; the column's head prints VEGFA-121
Method: (§1) All KinExA® experiments were performed at room temperature (RT) using PBS pH 7.4 with 0.01% BSA and 0.01% Tween® 20 (BioRad, #161-0781) as running buffer. […] A flow rate of 0.25 ml/min was used. A constant amount of Ang2-RBD-muFc (50 pM and in a second experiment 500 pM) was titrated with tested antibody by twofold serial dilution starting at 4 nM (concentration range 1.95 pM-4000 pM). Antigen-antibody complexes were incubated at RT for at least 8 h to allow equilibrium to be reached. Equilibrated mixtures were then drawn through a column of Anti-Ang2 antibody (MAB098) coupled beads in the KinExA® system at a volume of 750 μl for 50 pM constant Ang2 and at a volume of 188 μl for 500 pM constant Ang2 permitting unbound Ang2 to be captured by the beads without perturbing the equilibrium state of the solution. Bound Ang2 was detected using a second biotinylated anti-Ang2 antibody (BAM0981) with a concentration of 250 ng/ml and following by an injection of 250 ng/ml Streptavidin Alexa Fluor™ 647 conjugate in sample buffer. Each sample was measured in duplicates for all equilibrium experiments. The KD was obtained from non-linear regression analysis of the data using a one-site homogeneous binding model contained within the KinExA® software (Version 4.0.11) using the “standard analysis” method. […]

Mouse VEGF-A-121 = molecular target: T3, Mouse VEGF-A-121; assay: SPR crossreactivity set-up, VEGF-A121-His captured by anti-His antibody, Fab injected, single cycle kinetics
Method: (§2) An anti-His capturing antibody (GE Healthcare 28995056) was immobilized to a Series S Sensor Chip C1 (GE Healthcare BR100535) using standard amine coupling chemistry resulting in a surface density of approximately 600 resonance units (RU). As running and dilution buffer, HBS-P+ (10 mM HEPES, 150 mM NaCl pH 7.4, 0.05% Surfactant P20) was used. […] A dilution series of the tested antibody (3.7-300 nM, 1:3 dilution) was successively injected for 60 s each, dissociation was monitored for 3600 s at a flow rate of 30 μl/min (single cycle kinetics). The surface was regenerated by injecting 10 mM Glycine pH 1.5 for 60 s at a flow of 5 μl/min. […] Curve fitting was performed using the 1:1 Langmuir binding model within the Biacore® evaluation software.
(§3) Crossreactivity to VEGF-A and ANG2 from other species was assessed as described above in “Materials & general methods” section.

human VEGFA-121-His [3] = molecular target: T1, human VEGFA-121-His; assay: as above
Method: as §2, §3

human Ang2-RBD-muFc [4] = molecular target: T2, human Ang2-RBD-muFc; assay: KinExA equilibrium titration in solution, constant Ang2-RBD-muFc
Method: as §1

human Ang2-RBD = molecular target: T4, human Ang2-RBD; assay: SPR, Fab captured by anti-Fab antibody, Ang2-RBD injected, 25 C, 1:1 fit
Method: An anti-Fab capturing antibody (GE Healthcare 28958325) was immobilized to a Series S Sensor Chip C1 (GE Healthcare BR100535) using standard amine coupling chemistry resulting in a surface density of approximately 800 resonance units (RU). As running and dilution buffer, HBS-P+ (10 mM HEPES, 150 mM NaCl pH 7.4, 0.05% Surfactant P20) was used, the temperature of measurement was 25° C. The tested antibody was captured by injecting a 50 nM solution for 60 sec at a flow of 5 μl/min. Association was measured by injection of human Ang2-RBD in various concentrations in solution for 180 sec at a flow of 30 μl/min (0.07 nM-50 nM, 1:3 dilution). The dissociation phase was monitored for up to 900 sec and triggered by switching from the sample solution to running buffer at a flow rate of 30 μl/min. The surface was regenerated by injection of 10 mM Glycine pH 2.1 for 60 s at a flow rate of 30 μl/min. Bulk refractive index differences were corrected by subtracting blank injections and by subtracting the response obtained from the reference flow cell without captured tested antibody. Curve fitting was performed using the 1:1 Langmuir binding model within the Biacore® evaluation software.

human VEGFA-121-His [5] = molecular target: T1, human VEGFA-121-His; assay: SPR, VEGF-A121-His captured by anti-His antibody, Fab injected, single cycle kinetics, 1:1 fit
Method: as §2

Binder	Kd (human VEGFA-121-His [1]) [nM]	Kd (human VEGFA-165) [nM]	Kd (human Ang2-RBD-muFc [2]) [nM]	Kd (Mouse VEGF-A-121) [nM]	koff (Mouse VEGF-A-121) [s⁻¹]	kon (Mouse VEGF-A-121) [M⁻¹ s⁻¹]	t1/2 (Mouse VEGF-A-121) [h]	Kd (human VEGFA-121-His [3]) [nM]	koff (human VEGFA-121-His [3]) [s⁻¹]	kon (human VEGFA-121-His [3]) [M⁻¹ s⁻¹]	t1/2 (human VEGFA-121-His [3]) [h]	Kd (human Ang2-RBD-muFc [4]) [nM]	Kd (human Ang2-RBD) [nM]	koff (human Ang2-RBD) [s⁻¹]	kon (human Ang2-RBD) [M⁻¹ s⁻¹]	kon (human VEGFA-121-His [5]) [M⁻¹ s⁻¹]
B1	~0.004	~0.002	~0.002	0.368	0.000183	497000	1.05	0.0455	2.21e-05	486000	8.72	–	–	–	–	–
B2	–	–	–	–	–	–	–	–	–	–	–	7.18	4.55	0.032	7.03e+06	1.66e+06
